pIC50, pKd: −log10 of the molar value.
Legend:
[1] = molecular target: T1, IL-23 (human, p19/p40 heterodimer) (Homo sapiens) (UniProt Q9NPF7+P29460); test: filter; conditions: 2'-F C,U; SHMCK, tRNA
[2] = molecular target: T1, IL-23 (human, p19/p40 heterodimer) (Homo sapiens); test: cell_activity; conditions: 2'-F C and U, 2'-OH A and G; TransAM STAT3, PHA blasts

T1 sequence (Q9NPF7 20-189, chain 1 of 2): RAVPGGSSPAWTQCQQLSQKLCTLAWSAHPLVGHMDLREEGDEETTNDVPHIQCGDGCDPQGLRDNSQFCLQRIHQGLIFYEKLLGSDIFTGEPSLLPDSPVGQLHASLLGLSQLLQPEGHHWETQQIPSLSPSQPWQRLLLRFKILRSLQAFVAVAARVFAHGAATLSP
T1 sequence (P29460 23-328, chain 2 of 2): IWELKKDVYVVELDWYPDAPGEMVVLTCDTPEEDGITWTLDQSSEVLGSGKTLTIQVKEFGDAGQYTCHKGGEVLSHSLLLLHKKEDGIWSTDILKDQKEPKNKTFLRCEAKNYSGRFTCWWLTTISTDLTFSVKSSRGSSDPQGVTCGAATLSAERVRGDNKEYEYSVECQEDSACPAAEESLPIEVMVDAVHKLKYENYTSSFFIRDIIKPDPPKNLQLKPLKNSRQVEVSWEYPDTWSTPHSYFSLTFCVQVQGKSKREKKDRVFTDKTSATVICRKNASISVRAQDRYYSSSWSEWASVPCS

How did the pKd [1] turn out when “AGGGAAAAGGAAUCAUACACAAGAUGUAUCAUCCGGUCGUACAAAAGCGCCACGGAACCAUUCGCUCCGCCAGANACCAACCGAGAA [ARX33-plate1-H01]” was run?
Its pKd is 7.11.

And the pIC50 [2]?
The pIC50 was < 5.30.

— patent US20060193821
